Reference: article PMC5941314, “Structural insights into the nanomolar affinity of RING E3 ligase ZNRF1 for Ube2N and its functional implications” (Biochemical Journal, 2018)
Numbering of substitutions follows the chain as printed. Names may count otherwise.

B1: Ube2N (enzyme, UniProt P61088 1-152, looked up)
chain: MAGLPRRIIKETQRLLAEPVPGIKAEPDESNARYFHVVIAGPQDSPFEGGTFKLELFLPEEYPMAAPKVRFMTKIYHPNVDKLGRICLDILKDKWSPALQIRTVLLSIQALLSAPNPDDPLANDVAEQWKTNEAQAIETARAWTRLYAMNNI
notes: Ube2N, ubiquitin-conjugating enzyme E2 N; also called wtUbe2N; source: E. coli Rossetta2 (DE3), purified (ion exchange, SEC)
B2: Ube2N^A98T (enzyme, UniProt P61088 1-152, looked up)
chain: B1 chain with A98T
notes: Ube2N, ubiquitin-conjugating enzyme E2 N, with A98T; source: E. coli Rossetta2 (DE3), purified (ion exchange, SEC)
B3: Ube2N^R14A (enzyme, UniProt P61088 1-152, looked up)
chain: B1 chain with R14A
notes: Ube2N, ubiquitin-conjugating enzyme E2 N, with R14A; source: E. coli Rossetta2 (DE3), purified (ion exchange, SEC)
B4: Ube2N^R14D (enzyme, UniProt P61088 1-152, looked up)
chain: B1 chain with R14D
notes: Ube2N, ubiquitin-conjugating enzyme E2 N, with R14D; source: E. coli Rossetta2 (DE3), purified (ion exchange, SEC)
B5: Ube2N^R14E (enzyme, UniProt P61088 1-152, looked up)
chain: B1 chain with R14E
notes: Ube2N, ubiquitin-conjugating enzyme E2 N, with R14E; source: E. coli Rossetta2 (DE3), purified (ion exchange, SEC)
B6: Ube2N^S96R (enzyme, UniProt P61088 1-152, looked up)
chain: B1 chain with S96R
notes: Ube2N, ubiquitin-conjugating enzyme E2 N, with S96R; source: E. coli Rossetta2 (DE3), purified (ion exchange, SEC)
B7: ZNRF1^(CTD, E183A) (domain or fragment, UniProt Q8ND25 139-227, looked up)
chain: SHSGFKCPICSKSVASDEMEMHFIMCLSKPRLSYNDDVLTKDAGACVICLEELLQGDTIARLPCLCIYHKSCIDSWFEVNRSCPEHPAD
notes: ZNRF1, RING E3 ubiquitin ligase, residues 139-227 with E183A; also called ZRNF1^CTD,E183A; E183A mutant; source: E. coli Rossetta2 (DE3), purified
B8: ZNRF1^CTD (C-terminal domain of ZNRF1, residues 139–227) (domain or fragment, UniProt Q8ND25 139-227, looked up)
chain: B7 chain with A45E
notes: ZNRF1, RING E3 ubiquitin ligase, residues 139-227 of the full-length protein (ZnF and RING domains); also called ZNRF1 C-terminal domain; ZRNF1^CTD; source: E. coli Rossetta2 (DE3), purified (HisTrap, SEC)
B9: ZNRF1^RING (residues 166–227) (domain or fragment, UniProt Q8ND25 166-227, looked up)
chain: SKPRLSYNDDVLTKDAGECVICLEELLQGDTIARLPCLCIYHKSCIDSWFEVNRSCPEHPAD
notes: ZNRF1, RING E3 ubiquitin ligase, residues 166-227 (RING domain); also called RING domain of ZNRF1; source: E. coli Rossetta2 (DE3), purified (HisTrap, SEC)
B10: Ube2N/Ube2V1 complex (complex)
chain 1: B1 chain
chain 2: not shown
notes: Ube2N, ubiquitin-conjugating enzyme E2 N; Ube2V1, ubiquitin-conjugating enzyme E2 variant 1; also called Ube2N/V1; source: E. coli Rossetta2 (DE3), each purified, mixed in stoichiometric amounts, complex isolated by SEC

Tests used:
Conditions in all cases: both partners purified
[1] = target: T1, ZNRF1 full-length (UniProt Q8ND25 1-227); assay: ITC; ZNRF1 construct (10–30 µM) in the cell, E2 in the syringe; 25°C; 20 mM sodium phosphate pH 8.0, 150 mM NaCl; single site model
T1 construct: ZNRF1, RING E3 ubiquitin ligase, full-length (ends at residue 227); The C-terminal strep-tag II is called non-cleavable; also called ZNRF1^FL; source: E. coli Rossetta2 (DE3), purified (HisTrap, StrepTrap HP, desalted); not shown: strep-tag II, C-terminal, kept
T1 sequence (looked up): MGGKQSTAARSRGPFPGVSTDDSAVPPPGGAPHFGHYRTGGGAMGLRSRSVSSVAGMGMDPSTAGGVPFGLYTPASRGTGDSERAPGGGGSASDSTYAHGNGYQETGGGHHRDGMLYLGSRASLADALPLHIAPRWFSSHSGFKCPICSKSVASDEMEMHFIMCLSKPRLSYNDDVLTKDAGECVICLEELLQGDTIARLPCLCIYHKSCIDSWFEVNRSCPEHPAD

[2] = target: B7; assay: as above
[3] = target: B9; assay: as above
[4] = target: B8; assay: as above
[5] = target: B8; assay: ITC; ZNRF1^CTD in the cell, Ube2N in the syringe; 25°C; Na-phosphate pH 8.0, 300 mM NaCl; single site model
[6] = target: B8; assay: ITC; ZNRF1^CTD in the cell, Ube2N in the syringe; 25°C; Na-phosphate pH 8.0, 450 mM NaCl; single site model
[7] = target: B1; assay: ITC; ZNRF1 construct (10–30 µM) in the cell, E2 in the syringe; 25°C; 20 mM sodium phosphate pH 8.0, 150 mM NaCl; single site model
[8] = target: B2; assay: as above
[9] = target: B10; assay: as above
[10] = target: B6; assay: as above
[11] = target: B4; assay: as above
[12] = target: B3; assay: as above
[13] = target: B5; assay: as above
[14] = target: T2, Ube2D2 (UniProt P62837 1-147); assay: as above
T2 construct: Ube2D2, ubiquitin-conjugating enzyme E2 D2; also called wtUbe2D2; wild-type Ube2D2; source: E. coli Rossetta2 (DE3), purified (ion exchange, SEC)

[15] = target: T3, Ube2W (UniProt Q96B02 1-151); assay: as above
T3 construct: Ube2W, ubiquitin-conjugating enzyme E2 W; source: E. coli Rossetta2 (DE3), purified (ion exchange, SEC)

[16] = target: B1; assay: ITC; ZNRF1^CTD in the cell, Ube2N in the syringe; 25°C; Na-phosphate pH 8.0, 300 mM NaCl; single site model
[17] = target: B1; assay: ITC; ZNRF1^CTD in the cell, Ube2N in the syringe; 25°C; Na-phosphate pH 8.0, 450 mM NaCl; single site model

Q: For B1, which Kd [1] is on record?
A: The Kd was 0.0495 µM.

Q: What about the dH [1] of the same binder?
A: Its dH is -38.4 kJ/mol.

Q: And the “stoichiometry N” value [1]?
A: Its value is 0.842.

Q: And the dH [2]?
A: Its dH is -39.4 kJ/mol.

Q: And the “stoichiometry N” value [2]?
A: Its value is 0.848.

Q: And the dH [3]?
A: The dH was -45.7 kJ/mol.

Q: What about the “stoichiometry N” value [3] of the same binder?
A: The value was 0.913.

Q: What about the dH [4] of the same binder?
A: Its dH is -44 kJ/mol.

Q: What about the “stoichiometry N” value [4] of the same binder?
A: The value was 0.915.

Q: And the dH [5]?
A: The dH was -40.3 kJ/mol.

Q: And the “stoichiometry N” value [5]?
A: The value was 0.984.

Q: What about the dH [6] of the same binder?
A: The dH was -38.8 kJ/mol.

Q: What about the “stoichiometry N” value [6] of the same binder?
A: The value was 0.96.

Q: Which results are given for B2?
A: dH [4]: -40.2 kJ/mol; stoichiometry N [4]: 1.05

Q: Which dH [4] does the source give for B3 here?
A: The dH was -36.4 kJ/mol.

Q: And the “stoichiometry N” value [4]?
A: The value was 0.958.

Q: How did the dH [4] turn out when B4 was run?
A: The dH was -35.1 kJ/mol.

Q: And the “stoichiometry N” value [4]?
A: Its value is 0.966.

Q: Which results are given for B5?
A: dH [4]: -35.7 kJ/mol; stoichiometry N [4]: 0.854

Q: Which dH [4] does the source give for B6 here?
A: The dH was -23.6 kJ/mol.

Q: And the “stoichiometry N” value [4]?
A: Its value is 0.828.

Q: B7 was tested. Which Kd [7] did it give?
A: The Kd was 0.459 µM.

Q: How did the Kd [8] turn out when B8 was run?
A: The Kd was 0.408 µM.

Q: And the Kd [9]?
A: Its Kd is 0.0392 µM.

Q: And the Kd [10]?
A: Its Kd is 0.203 µM.

Q: And the Kd [11]?
A: Its Kd is 0.948 µM.

Q: And the Kd [7]?
A: Its Kd is 0.0388 µM.

Q: And the Kd [12]?
A: Its Kd is 0.32 µM.

Q: And the Kd [13]?
A: Its Kd is 1.08 µM.

Q: And the Kd [14]?
A: The Kd was 1.13 µM.

Q: What about the Kd [15] of the same binder?
A: The Kd was 1.09 µM.

Q: And the Kd [16]?
A: Its Kd is 0.171 µM.

Q: And the Kd [17]?
A: Its Kd is 0.225 µM.

Q: B9 was tested. Which Kd [7] did it give?
A: Its Kd is 0.0494 µM.

Q: Which dH [4] does the source give for B10 here?
A: Its dH is -42.7 kJ/mol.

Q: And the “stoichiometry N” value [4]?
A: Its value is 1.04.
